Measured values taken from article PMC5349785 (Molecular Biology of the Cell, 2017).
Each block holds one binder with its values, some of them ahead of it.

Assays:
[1] = target: T1, Vps5 with C-terminal TAP tag (S. cerevisiae, UniProt Q92331 1-675); assay: tandem affinity purification
T1 sequence: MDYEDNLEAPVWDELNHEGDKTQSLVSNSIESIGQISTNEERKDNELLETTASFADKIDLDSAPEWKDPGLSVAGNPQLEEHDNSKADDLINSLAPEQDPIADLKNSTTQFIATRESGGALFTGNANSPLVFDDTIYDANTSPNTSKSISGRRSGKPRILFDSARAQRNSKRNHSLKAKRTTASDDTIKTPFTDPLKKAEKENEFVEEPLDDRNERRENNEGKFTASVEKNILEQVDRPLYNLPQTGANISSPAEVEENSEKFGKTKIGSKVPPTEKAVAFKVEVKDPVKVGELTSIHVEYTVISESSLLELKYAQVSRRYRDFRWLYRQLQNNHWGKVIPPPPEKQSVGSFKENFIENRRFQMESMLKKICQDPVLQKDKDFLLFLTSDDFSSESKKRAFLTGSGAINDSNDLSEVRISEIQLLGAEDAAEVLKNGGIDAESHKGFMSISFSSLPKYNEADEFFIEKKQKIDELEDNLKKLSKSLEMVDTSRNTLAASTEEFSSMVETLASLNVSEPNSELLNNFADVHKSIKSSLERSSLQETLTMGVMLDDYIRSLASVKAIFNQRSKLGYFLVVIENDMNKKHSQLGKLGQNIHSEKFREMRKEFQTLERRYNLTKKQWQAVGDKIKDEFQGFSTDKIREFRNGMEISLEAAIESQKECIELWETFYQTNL

[2] = target: cargo selection complex (CSC; Vps35, Vps26, Vps29) (S. cerevisiae, UniProt P34110;P40335;P38759); assay: pull-down
[3] = target: CSC with GFP-tagged Vps29 (CSC-GFP) (S. cerevisiae, UniProt P34110;P40335;P38759); assay: pull-down

binding result [1]: binds
B1: Vps17 (natural protein)
chain: MTSAVPYDPYDDLDNNPFAEPQEEDSEPAATTTDGSSSMSEERVGTEQTAASVQDNGTANNIQNGLGEEGNATRSKTSNEHNENQQPSQPSERVILPERSDEKKKYTLLAKVTGLERFGSATGKKENPTIIFDCSTNLPTFRKQQYKNVKKSYEEFHQLFKYLNVAIQESFVPTLPSAYTTFGINSEEDRMKVTRNFQLWFNRLSQDPLIIRNEEVAFFIESDFNTYTPINKSKSLASGLKRKTLKQLAPPYDEITELAEFRPLVKSIYVVSQSLQEKLLRVSRNRKMMVQEENAFGQDFVNLDEHNKLYRRYGKILTAVGDIDSIIATMDMATLYDGLEWIVRDAYAVKEALTNRHFIMRNLVQAQQNSKAKQEQARRFRSRRDINPMKIDEALRQLKAAAKNEQVLTLKLQRITSNMIIERKQWISWYEEWIRSSIKEFTLRKIEYERKKLTLLERVRSDIRKADENGGLSRLGRHAVSNNNSDTSQTLKGDSWTGESNRKSQIPINKIAHTEFDDELFTEDDGYNSQDSDTTSLNARHAASLLGMSTK

binding result [2]: binds
binding result [3]: binds
B2: GST-tagged Ypt7 (natural protein)
chain: MSSRKKNILKVIILGDSGVGKTSLMHRYVNDKYSQQYKATIGADFLTKEVTVDGDKVATMQVWDTAGQERFQSLGVAFYRGADCCVLVYDVTNASSFENIKSWRDEFLVHANVNSPETFPFVILGNKIDAEESKKIVSEKSAQELAKSLGDIPLFLTSAKNAINVDTAFEEIARSALQQNQADTEAFEDDYNDAINIRLDGENNSCSC
